Measured values from PMC2652392, “The Structural Basis of Gas-Responsive Transcription by the Human Nuclear Hormone Receptor REV-ERBβ” (PLoS Biology, 2009).
No end group written: not given here.

How the values were obtained:
[1] = biological target: T1, REV-ERBβ ligand-binding domain (human, UniProt Q14995 212-579); assay: FP; no heme, control
T1 chain: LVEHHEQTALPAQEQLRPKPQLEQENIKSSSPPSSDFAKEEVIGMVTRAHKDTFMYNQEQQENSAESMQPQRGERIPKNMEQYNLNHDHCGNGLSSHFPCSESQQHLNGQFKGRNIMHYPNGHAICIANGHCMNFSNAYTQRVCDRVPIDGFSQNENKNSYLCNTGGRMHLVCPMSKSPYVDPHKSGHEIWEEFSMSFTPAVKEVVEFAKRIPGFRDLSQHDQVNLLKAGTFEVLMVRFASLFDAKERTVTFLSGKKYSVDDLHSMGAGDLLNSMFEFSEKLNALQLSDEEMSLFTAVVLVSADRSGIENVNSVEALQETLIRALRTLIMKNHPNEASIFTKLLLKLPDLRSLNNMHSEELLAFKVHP

[2] = biological target: T2, REV-ERBα ligand-binding domain (residues 274–614 with an internal deletion of residues 324–422) (human, UniProt P20393 274-614, internal deletion of residues 324–422); assay: FP; no heme, control
T2 sequence: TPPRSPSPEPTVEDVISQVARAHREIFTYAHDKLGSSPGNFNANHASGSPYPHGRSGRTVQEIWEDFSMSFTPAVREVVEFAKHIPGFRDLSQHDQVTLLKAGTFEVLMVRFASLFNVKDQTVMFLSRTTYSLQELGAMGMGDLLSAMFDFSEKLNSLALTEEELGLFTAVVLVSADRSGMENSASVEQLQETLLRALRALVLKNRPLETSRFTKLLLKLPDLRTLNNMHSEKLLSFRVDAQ

[3] = biological target: T1, REV-ERBβ ligand-binding domain; assay: FP; no heme, + SNAP (NO donor)
[4] = biological target: T2, REV-ERBα ligand-binding domain …; assay: FP; no heme, + SNAP (NO donor)
[5] = biological target: T3, REV-ERBα ligand-binding domain (residues 274–614 with an internal deletion of residues 324–422) (human, UniProt P20393 274-614, internal deletion of residues 324–422); assay: fluorescence polarisation; 110 nM N-terminally fluorescein-labelled NCOR peptide with a dilution series of LBD; 100 mM Tris pH 8.2, 150 mM NaCl; apo or heme-bound LBD, with or without the NO donor SNAP (1,200 μM); 384-well plates; settings: both partners purified
T3 construct: REV-ERBα, human, GenBank CAB53540, residues 274–614 with an internal deletion of residues 324–422; heme is a non-covalent ligand; Modified pET28a vector; also called REV-ERBα LBD; source: E. coli BL21-Gold(DE3) pLysS, with or without hemin in the medium, purified (Ni-NTA)
T3 sequence (looked up): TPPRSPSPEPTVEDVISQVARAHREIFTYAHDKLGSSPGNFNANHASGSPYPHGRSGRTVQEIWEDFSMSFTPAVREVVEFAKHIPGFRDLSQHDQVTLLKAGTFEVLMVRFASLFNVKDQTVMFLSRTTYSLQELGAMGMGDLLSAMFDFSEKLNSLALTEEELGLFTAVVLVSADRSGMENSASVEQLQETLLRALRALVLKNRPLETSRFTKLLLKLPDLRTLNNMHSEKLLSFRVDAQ

[6] = biological target: T1, REV-ERBβ ligand-binding domain; assay: FP; heme-bound, control
[7] = biological target: T2, REV-ERBα ligand-binding domain …; assay: FP; heme-bound, control
[8] = biological target: T1, REV-ERBβ ligand-binding domain; assay: FP; heme-bound, + SNAP (NO donor)
[9] = biological target: T2, REV-ERBα ligand-binding domain …; assay: FP; heme-bound, + SNAP (NO donor)

Kd [1]: 16.8 µM
Kd [2]: 4.1 µM
Kd [3]: 20.4 µM
Kd [4]: 3.7 µM
binding result [5]: binds
Kd [6]: 193 µM
Kd [7]: 51.1 µM
Kd [8]: 99.7 µM
Kd [9]: 2.9 µM
B1: NCOR interaction domain I (IDI) peptide (peptide)
peptide: fluorescein-DPASNLGLEDIIRKALMGSF
notes: also called NCOR peptide; Nuclear Receptor Co-repressor peptide
